According to patent publication US12545899B2, “Luciferase enzymes for use with thermostable luciferins in bioluminescent assays” (Promega Corporation, priority 2018, dated 2026):

Key:
Type in all cases: biochemical
[1] = Purified enzyme activity of ATG-2890 with CS0280 (FIGS. 9C-9D)
Procedure: (§1) FIG. 9A includes a representative graph assessing the activities of luciferase enzyme variants ATG-2877, ATG-2624, and ATG-2890 in the presence of 5,5-disubstituted luciferin analog substrate. Luciferin analog compounds were diluted from 50 mM to 20 mM in reaction buffer (either Bright-Glo™ or Detection Reagent buffer). […] Reagent compositions included 50 μl Reaction Buffer+ATP, which was combined with 50 μl diluted enzyme. Plates were incubated at room temp for 30 minutes to minimize background, and 5 μl of luciferin analog substrate was added to a final concentration of 1 mM. Plates were read before and after compound addition at 3 mins and 20 mins.

[2] = Purified enzyme activity of ATG-2890 with CS0333 (FIGS. 9C-9D)
Procedure: as §1

[3] = Vmax and Km of Ppe variant and ATG-3707 with D/L-luciferin
[4] = Vmax and Km of ATG-3707 with CS0333
[5] = Luminescence of ATG-3707 variants (second round epPCR) with CS0333
Procedure: Reagent compositions included CS0333 diluted from 20 mM to 2 mM in reaction buffer with 2 mM ATP. […] Reactions were incubated at 25° C. for 3 min, and luminescence was read and then normalized to ATG-3707 activity tested in parallel.

[6] = Kinetic analysis of ATG-3707 variants with CS0333
Procedure: Additionally, Table 5 (below) includes kinetic analysis of the ATG-3707 variants identified above. Reagent compositions included CS0333 serially diluted 10-fold from 1 mM to 10 fM in reaction buffer with 2 mM ATP. […] Reactions were incubated at 25° C. for 3 min, and luminescence was read and then normalized to ATG-3707 activity tested in parallel. […] Since C2157D2 was selected for improved brightness in CellTiterGlo® buffer over ATG-3707, it still had beneficial properties.

[7] = Kinetic analysis of Ppe variant, ATG-3707, ATG-4117 with D/L-luciferin
Procedure: (§2) Kinetic tests of these luciferase enzyme variants were also conducted. […] Reagent compositions included 0.005 mg/ml luciferase enzyme variant+1 mM ATP, and 0.1 fM to 1 mM substrate in Bright-Glo™ (BG) or Detection Reagent (DR) buffers. The composition was incubated for 3 mins and read on GloMax® Multi+platform.
(§3) Table 8 below includes representative results of kinetic analysis of the thermostable luciferase variants of Ppe (SEQ ID NO: 1), ATG-3707, and ATG-4117. The Ppe variant (SEQ ID NO: 1) was tested with D/L-luciferin, and ATG-3707, and ATG-4117 were tested with CS0280 and CS0333.

[8] = Kinetic analysis of ATG-3707, ATG-4117 with CS0280
Procedure: as §2, §3

[9] = Kinetic analysis of ATG-3707, ATG-4117 with CS0333
Procedure: as §2, §3

[10] = Activity and kinetics of ATG-3707 with CS0333 (FIGS. 19B-19D)
Procedure: Reagent compositions included 0.005 mg/ml enzyme in 1×TBS+0.5% Prionex, 1 mM substrate in buffer, and 1 mM ATP.

B1: ATG-2890: SEQ ID NO: 13; I240L+H244W+Y254S+T344A+I396K (protein)
chain: MADKNILYGPEPFYPLEDGTAGEQMFDALSRYAAIPGCIALTNAHTKENVLYEEFLKLSCRLAESFKKYGLKQNDTIAVCSENSLQFFLPVIASLYLGIIVAPVNDKYIERELIHSLGIVKPRIVFCSKNTFQKVLNVKSKLKSIETIIILDLNEDLGGYQCLNNFISQNSDSNLDVKKFKPYSFNRDDQVASIMFSSGTTGLPKGVMLTHKNIVARFSIAKDPTFGNAINPTSAILTVLPFHWGFGMMTTLGSFTCGFRVVLMHTFEEKLFLQSLQDYKVESTLLVPTLMAFLAKSALVEKYDLSHLKEIASGGAPLSKEIGEMVKKRFKLNFVRQGYGLTEATSAVLITPKGDAKPGSTGKIVPLHAVKVVDPTTGKILGPNEPGELYFKGPMKMKGYYNNEEATKAIIDNDGWLRSGDIAYYDNDGHFYIVDRLKSLIKYKGYQVAPAEIEGILLQHPYIVDAGVTGIPDEAAGELPAAGVVVQTGKYLNEQIVQDYVASQVSTAKWLRGGVKFLDEIPKGSTGKIDRKVLRQMLEKHTNGHHHHHHHH
In the case of B1, the “increase in activity with CS0280 compared to Ppe variant (SEQ ID NO: 1)” value ([1]; Bright-Glo Buffer) is reported as 120 fold, the “increase in activity with CS0280 compared to Ppe variant (SEQ ID NO: 1)” value ([1]; Detection Buffer) is reported as 6 fold and the “increase in activity with CS0333 compared to Ppe variant (SEQ ID NO: 1)” value ([2]; Bright-Glo Buffer) is reported as 1,470 fold. The “increase in activity with CS0333 compared to Ppe variant (SEQ ID NO: 1)” value ([2]; Detection Buffer) was 3,050 fold.

B2: ATG3707: SEQ ID NO: 2; H244W+T344A+I396K+S193A+N228D+L305F+S306P+I109V (protein)
chain: MADKNILYGPEPFYPLEDGTAGEQMFDALSRYAAIPGCIALTNAHTKENVLYEEFLKLSCRLAESFKKYGLKQNDTIAVCSENSLQFFLPVIASLYLGIIVAPVNDKYVERELIHSLGIVKPRIVFCSKNTFQKVLNVKSKLKSIETIIILDLNEDLGGYQCLNNFISQNSDSNLDVKKFKPYSFNRDDQVAAIMFSSGTTGLPKGVMLTHKNIVARFSIAKDPTFGDAINPTSAILTVIPFHWGFGMMTTLGYFTCGFRVVLMHTFEEKLFLQSLQDYKVESTLLVPTLMAFLAKSALVEKYDFPHLKEIASGGAPLSKEIGEMVKKRFKLNFVRQGYGLTEATSAVLITPKGDAKPGSTGKIVPLHAVKVVDPTTGKILGPNEPGELYFKGPMKMKGYYNNEEATKAIIDNDGWLRSGDIAYYDNDGHFYIVDRLKSLIKYKGYQVAPAEIEGILLQHPYIVDAGVTGIPDEAAGELPAAGVVVQTGKYLNEQIVQDYVASQVSTAKWLRGGVKFLDEIPKGSTGKIDRKVLRQMLEKHTNGHHHHHHHH
For B2, the Km ([3]; BrightGlo Buffer) was 0.03 µM, the “Vmax (RLU)” value ([3]; BrightGlo Buffer) was 2,033,235 RLU and the Km ([3]; CellTiterGlo buffer) was 91.7 µM. The “Vmax (RLU)” value ([3]; CellTiterGlo buffer) was 4,840,502 RLU, the Km ([3]; Detection Reagent Buffer) was 19.4 µM and the “Vmax (RLU)” value ([3]; Detection Reagent Buffer) was 4,499,483 RLU. For the same molecule, the Km ([4]; BrightGlo Buffer) was 0.539 µM, the “Vmax (RLU)” value ([4]; BrightGlo Buffer) was 3,724,104 RLU and the Km ([4]; Detection Reagent Buffer) was 4.82 µM. The “Vmax (RLU)” value ([4]; Detection Reagent Buffer) was 5,458,906 RLU, the “Luminescence (RLU) BrightGlo” value ([5]; BrightGlo buffer, 25° C., 3 min) was 3887670 RLU and the “Normalized Luminescence BrightGlo” value ([5]; BrightGlo buffer, normalized to ATG-3707) was 1.00. For the same molecule, the “Luminescence (RLU) CellTiterGlo” value ([5]; CellTiterGlo buffer, 25° C., 3 min) was 644571 RLU, the “Normalized Luminescence CellTiterGlo” value ([5]; CellTiterGlo buffer, normalized to ATG-3707) was 1.00 and the “Luminescence (RLU) Detection Reagent” value ([5]; Detection Reagent buffer, 25° C., 3 min) was 5157310 RLU. The “Normalized Luminescence Detection Reagent” value ([5]; Detection Reagent buffer, normalized to ATG-3707) was 1.00, the Km ([6]; BrightGlo) was 6.25 µM and the “Vmax (RLU)” value ([6]; BrightGlo) was 4,240,329 RLU. The Km ([6]; Detection Reagent) was 113 µM, the “Vmax (RLU)” value ([6]; Detection Reagent) was 3,695,670 RLU and the Km ([7]; BrightGlo) was 0.0272 µM. The “Vmax (RLU)” value ([7]; BrightGlo) was 2,596,835 RLU, the Km ([7]; Detection Reagent) was 1.18 µM and the “Vmax (RLU)” value ([7]; Detection Reagent) was 6,820,106 RLU. For the same molecule, the Km ([8]; BrightGlo) was 4.53 µM, the “Vmax (RLU)” value ([8]; BrightGlo) was 5,791,823 RLU and the Km ([8]; Detection Reagent) was 93.5 µM. The “Vmax (RLU)” value ([8]; Detection Reagent) was 4,706,312 RLU, the Km ([9]; BrightGlo) was 3.61 µM and the “Vmax (RLU)” value ([9]; BrightGlo) was 828,567 RLU. The Km ([9]; Detection Reagent) was 148 µM, the “Vmax (RLU)” value ([9]; Detection Reagent) was 42,242 RLU and the “activity with CS0333 comparable to that of Ppe variant with luciferin” value ([10]; Bright-Glo and Detection Reagent buffers) was no more than 10 ×. For the same molecule, the “loss of performance with D/L-luciferin as compared to CS0333” value ([10]; dimmer) was “about 1 log”.
